# Assay results as given in patent publication US8871909B2, “Antibodies inhibiting c-Met dimerization and uses thereof” (Pierre Fabre Medicament, priority 2007, dated 2014).
# B1: 224G11: murine anti-c-Met monoclonal antibody, IgG1 kappa; heavy chain SEQ ID No. 18, light chain SEQ ID No. 21 (antibody, V domains shown)
# VH: EVQLQQSGPELVKPGASVKISCKTSGYIFTAYTMHWVRQSLGESLDWIGGIKPNNGLANYNQKFKGKATLTVDKSSSTAYMDLRSLTSEDSAVYYCARSEITTEFDYWGQGTALTVSS
# VL: DIVLTQSPASLAVSLGQRATISCRASESVDSYANSFMHWYQQKPGQPPKLLIYRASNLESGIPARFSGSGSRTDFTLTINPVEADDVATYYCQQSKEDPLTFGSGTKLEMK
# modifications: mus musculus
# B2: 11E1: murine anti-c-Met monoclonal antibody, IgG1 kappa; heavy chain SEQ ID No. 62, light chain SEQ ID No. 63 (antibody, V domains shown)
# VH: QVQLQQSGAELAKPGASVKMSCKASGYTFTSYWMNWVKQRPGQGLEWIGYINPTTGSTDYNQKLKDKATLTADKSSNTAYMQLSSLTSEDSAVYYCAIGGYGSWFAYWGQGTLVTVSA
# VL: QIVLTQSPAIMSASPGEKVTLTCSASSSVSSTYLYWYQQKPGSSPKLWIYTTSILASGVPARFSGSGSGTSYSLTISSMETEDAASYFCHQWSSYPFTFGSGTKLDIK
# modifications: mus musculus
# B3: 223C4: murine anti-c-Met monoclonal antibody, IgG1 kappa; heavy chain SEQ ID No. 20, light chain SEQ ID No. 23 (antibody, V domains shown)
# VH: EVLLQQSGPELVKPGASVKIPCKASGYTFTDYNMDWVKQSHGMSLEWIGDINPNNGGTIFNQKFKGKATLTVDKSSSTAYMELRSLTSEDTAVYYCARGRYVGYYYAMDYWGQGTSVTVSS
# VL: DIQMTQSPASLSVSVGETVTITCRASENIYSNLAWYQQKQGKSPQLLVYAATNLVDGVPSRFSGSGSGTQYSLKINSLQSEDFGSYYCQHFWGPPYTFGGGTKLEIK
# modifications: mus musculus
# How the values were obtained:
# SK-HEP-1 cells = assay: Scatter assay; type: cell-based; conditions: SK-HEP-1, antibody 10 μg/ml; for inhibitory effect on cell scattering in presence of HGF: HGF 100 ng/ml; for agonist effect on cell scattering, alone: no HGF
# Experimental: SK-HEP-1 cells were seeded at low density (1·10^4 cells/well) in a 24-well plate in DMEM with 10% FCS and grown for 24 hours before addition, at the same time, of HGF (100 ng/ml) and antibodies to be tested (10 μg/ml). After 72 hours incubation, colonies were fixed and stained with 0.2% crystal violet in methanol and assessed for scattering visually. Each tested condition was tested as a triplicate and 3 independent experiments were performed.
# [1] = system: U-87MG, human glioblastoma cells; assay: U87-MG spheroid growth; type: cell-based; conditions: antibody 10 μg/ml
# Experimental: To evaluate the ability of anti-c-Met antibodies to inhibit in vitro tumor growth, in a model closer to an in vivo situation, U-87MG, human glioblastoma cells (ATCC #HTB-14) spheroids were generated. Cells grown as a monolayer were detached with trypsine-EDTA and resuspended into complete cell culture media (DMEM) supplemented with 10% FBS. Spheroids were initiated by inoculating 625 cells into single wells of round bottom, 96 plates in DMEM-10% FCS. To prohibit cell adhesion to a substratum, the plates were pre-coated with polyHEMA in 95% ethanol and air dried at room temperature. The plates were incubated under standard cell culture conditions at 37° C., 5% CO2 in humidified incubators. Purified monoclonal antibodies (10 μg/ml) were added after 3 and 7 days of spheroid culture. HGF (400 ng/ml) was added once after 4 days of culture. Spheroids were kept in culture for at least 10 days. Then, spheroid growth was monitored by measuring the area of spheroids using automeasure module of axiovision software. Area was expressed in μm^2. 8-16 spheroids were evaluated for each condition.
# As already described in Example 9 for other Mabs, we evaluate the ability of 224G11 Mab to inhibit in vitro tumor growth in the U87-MG spheroid model. For that purpose, U87-MG cells grown as a monolayer were detached with trypsine-EDTA and resuspended into complete cell culture media. Spheroids were initiated by inoculating 625 cells into single wells of round bottom, 96 plates in DMEM-2.5% FCS. To prohibit cell adhesion to a substratum, the plates were pre-coated with polyHEMA in 95% ethanol and air dried at room temperature. The plates were incubated under standard cell culture conditions at 37° C., 5% CO2 in humidified incubators. Purified monoclonal antibodies (10 μg/ml) were added after 4 and 10 days of spheroid culture. Spheroids were kept in culture for 17 days. Then, spheroid growth was monitored by measuring the area of spheroids using automeasure module of axiovision software. Area was expressed in μm^2. 8-16 spheroids were evaluated for each condition. Spheroid size was measured before addition of antibodies, after 10 days of culture and after 17 days of culture.
# NCI-H441 = NCI-H441 xenograft model (Example 11)
# Text: The evaluation of anti-c-met antibodies on the in vivo activity of this non autocrine cell line could give some insights about their potency to impact on c-met dimerization.
# HUVEC = HUVEC tube formation; type: cell-based; conditions: HGF 50 ng/ml
# Experimental: For evaluation of HUVEC tube formation, 25000 cells incubated 30 min with antibodies to be tested were plated in 48-well plates coated with matrigel. Then HGF 50 ng/ml was added and plates were incubated at 37° C. Medium was then harvested and […] CMFDA was added for 15 min before microscopic observation.
# [2] = biological target: T1, recombinant c-Met-Extra-Cellular Domain (ECD) fused to an human IgG Fc domain (Homo sapiens, UniProt P08581); assay: Determination of affinity constants (KD) by Biacore analysis; type: binding; conditions: text summary of table 4; read-out: affinity for recombinant c-Met-Fc fusion protein
# T1 construct: recombinant c-Met-Extra-Cellular Domain (ECD) fused to an human IgG Fc domain (R&D Systems) as antigen; purchased R&D Systems
# T1 sequence (P08581 25-932 limits assumed): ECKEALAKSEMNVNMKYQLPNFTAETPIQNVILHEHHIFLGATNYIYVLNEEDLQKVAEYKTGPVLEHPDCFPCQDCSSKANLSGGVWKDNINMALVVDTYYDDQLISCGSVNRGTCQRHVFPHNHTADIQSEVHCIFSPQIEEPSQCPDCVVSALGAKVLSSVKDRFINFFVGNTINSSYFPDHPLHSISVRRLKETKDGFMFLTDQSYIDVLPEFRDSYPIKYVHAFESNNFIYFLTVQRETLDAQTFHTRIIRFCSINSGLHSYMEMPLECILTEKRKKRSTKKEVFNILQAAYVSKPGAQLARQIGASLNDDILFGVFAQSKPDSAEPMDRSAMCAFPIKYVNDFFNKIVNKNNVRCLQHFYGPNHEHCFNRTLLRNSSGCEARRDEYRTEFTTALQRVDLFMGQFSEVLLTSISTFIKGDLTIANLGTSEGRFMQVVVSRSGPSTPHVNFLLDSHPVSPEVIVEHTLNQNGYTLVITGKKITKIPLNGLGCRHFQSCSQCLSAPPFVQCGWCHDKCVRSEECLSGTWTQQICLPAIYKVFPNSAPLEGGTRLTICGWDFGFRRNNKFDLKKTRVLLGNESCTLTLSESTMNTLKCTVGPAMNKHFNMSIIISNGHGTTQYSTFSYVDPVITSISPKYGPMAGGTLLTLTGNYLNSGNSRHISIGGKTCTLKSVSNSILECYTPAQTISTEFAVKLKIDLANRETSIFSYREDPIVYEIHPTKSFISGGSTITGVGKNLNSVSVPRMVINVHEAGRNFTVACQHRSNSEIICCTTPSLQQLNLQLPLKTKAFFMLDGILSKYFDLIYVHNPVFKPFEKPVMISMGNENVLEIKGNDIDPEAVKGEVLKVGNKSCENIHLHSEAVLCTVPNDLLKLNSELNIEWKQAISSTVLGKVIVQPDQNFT
# Text: The binding affinity of purified 11E1 and 224G11 antibodies was investigated by BIAcore X using recombinant c-Met-Extra-Cellular Domain (ECD) fused to an human IgG Fc domain (R&D Systems) as antigen (MW=129 kDa). As both c-Met-Fc fusion proteins and antibodies are bivalent compounds, Fab fragments of mAbs 11E1 and 224G11 (MW=50 kDa) were generated by papain cleavage, purified and used in this assay to avoid interference with avidity parameter. For the assay, an anti-Tag histidine capture antibody was coated on CM5 sensorchips. The running buffer was HBS-EP, the flow rate was 30 μl/min and the test was performed at 25° C. Soluble c-Met (ECD_M1)2-Fc-(HHHHHH)2 antigen was captured on the sensorchip (around 270 RU), and the antibodies to be tested were used in solution as analytes. The sensorship was regenerated using Glycine, HCl pH 1.5 buffer on both flowcells for half a minute.
# HGF-cMet = biological target: T2, HGF-cMet (Homo sapiens, UniProt P08581); assay: HGF-cMet competition assay (ELISA); type: binding; conditions: purified murine antibodies
# T2 construct: recombinant c-Met-Extra-Cellular Domain (ECD) fused to an human IgG Fc domain
# T2 sequence (P08581 25-932 limits assumed): as above
# Text: FIG. 54: HGF-cMet competition assay. In this ELISA-based assay, recombinant Fc-cMET residual binding to plastic coated HGF in the presence of purified murine monoclonal antibodies 11E1, 224G11 and 227H1 was detected with […] and measured at 450 nm;
# FIG. 58: HGF-cMet competition assay of 227H1 murine and recombinant antibodies. In this ELISA-based assay, recombinant Fc-cMet residual binding to plastic coated HGF in the presence of the different forms of the 227H1 antibody was detected with a biotinylated unrelated anti-cMet antibody. Purified murine 227H1 monoclonal antibody, chimeric and HZ4VH-derived humanized 227H1-derived recombinant antibodies were tested and compared for their abilities to compete with HGF-cMet binding when measured at 450 nm;
# Humanization of the anti-cMet antibodies were performed independently for each chain and sequentially, regarding to the analysed amino acids in each variable domain. The humanization process was evaluated in a first attempt in an ELISA-based binding assay to recombinant Fc-cMet; binding activities the humanized antibodies being compared to the recombinant chimeric antibody. In a second attempt, anti-cMet humanized antibodies were evaluated for their abilities to displace the Fc-cMet binding onto plastic-coated recombinant HGF; this competition assay allowing the direct comparison of murine, chimeric and humanized versions of the anti-cMet antibodies.
# These two assays were used to characterize the recombinant chimeric and humanized versions of the murine anti-cMet antibodies. To this end, briefly, anti-cMet variable domains, either murine or humanized, were cloned into LONZA's pCONplus expression vectors series and recombinant IgG1/κ-derived antibodies were expressed in CHO cells. […] Both direct binding and HGF-competition assays were assessed to better characterize recombinant chimeric or humanized versions.
# [3] = Example 23: DMEM-2.5% FCS, 10 or 17 days of culture
# [4] = Example 9: DMEM-10% FCS, in presence and in absence of HGF 400 ng/ml
Molecule,inhibitory effect on cell scattering in presence of HGF (SK-HEP-1 cells),"agonist effect on cell scattering, alone (SK-HEP-1 cells)","effect on spheroid growth [1, 3]",inhibition of in vivo growth of NCI-H441 (NCI-H441),effect on HGF-induced tube formation (HUVEC),Kd [2] [nM],maximum of HGF binding displacement (HGF-cMet; at high antibody concentration) [%],"effect on spheroid growth [1, 4]",HGF-cMet binding competition activity (HGF-cMet)
B1,very significant inhibitory effect,No agonistic effect,markedly inhibited,inhibited significantly,inhibit dramatically,~0.04,100,–,–
B2,very significant inhibitory effect,No agonistic effect,markedly inhibited,inhibited significantly,inhibit dramatically,~0.04,–,reduced significantly,"moderate, not full but reliable competitive activity"
B3,–,–,–,–,–,–,–,reduced significantly,–
